Reference: IntAct's records for PubMed 11565033

B1: F-box/WD repeat-containing protein 7 (Drosophila melanogaster (Fruit fly)), Q9VZF4 (parent)
chain: MERGCPAASSESVTSAGERTQSAVTSSTSTWVKSQASTSRKTEASEESGLGAVDAEVGAGREAFVSMSTLREDVEDVCVSSNSQHGFAVVLDDESSTFEISSSNSLPTSAGAASTVGVVAVDDSSSTDTLNGGHPDLGHPASSEHSRQGFFNEDNEDPPVVCLINDDDDDEEPEPEEDDEEELIEDEDEDAVDIVTGAISCPNTSQLALADGTIMAADGSKIFLETPVVEEAQPHPGQVVTTGSQSELTGKPKRLSDEFLLGEEDQAENLALGRCIKSEPVNPVDDNPSEGDDGATCFSLHDRLMSVRLKQMSLTANTVSNPSPAASANAAAPEEASTSNSSSTSSSALSRADIESMDLIERRDFETEQRLTGGIILRTSSMVSQNKLNLSLIKSMAGGSKAANGSGTANSDDWPSSSNGRTVSSDSKYTYKDLSTTPTSSRKYTNSRLSKSTAKLNLGSSLGASSCSQHRSGSSSTSKSMESSTSCTGAARTDVYTNTNSNDYPSLAPTTSGSSTSGGSCQQDQEENVSASVSYSSVGSQTSQESGCSRTTAINPTAACSTGSACLGDSQASTSASTSSGAGASNRCQYATTSTTKAARQVNASAQTQERFLTRSNPPAASGAGSVGANPTASVRQRRNGSSDVVHLEVVVEEGAGGGDGGVVEPGDFSAEEPWANCDEENNCSDLEEICTCQNGNGSSYGGSNASLSETFDMDAMDPDEPISLSLSSASAGFTEYSLTNPSSLMSHQRKRKFNEGRLLDGGDYSVTISSSGEVGGPGSGVSDNCRKRIAYDFASTPRSSQHLGPTAVLSVTPSSHLTSSTPGSALGRRTPRSVPSRDNPPPELQHWLAQFQRWSHVERLLALDRLIDHCDPSQVRHMMKVIEPQFQRDFISLLPRELALFVLSYLEPKDLLRAAQTCRSWRFLCDDNLLWKEKCRKAQILAEPRSDRPKRGRDGNMPPIASPWKAAYMRQHIIEMNWRSRPVRKPKVLKGHDDHVITCLQFSGNRIVSGSDDNTLKVWSAVNGKCLRTLVGHTGGVWSSQMSGNIIISGSTDRTLKVWDMDSGACVHTLQGHTSTVRCMHLHGSKVVSGSRDATLRVWDIEQGSCLHVLVGHLAAVRCVQYDGKLIVSGAYDYMVKIWHPERQECLHTLQGHTNRVYSLQFDGLHVVSGSLDTSIRVWDVETGNCKHTLMGHQSLTSGMELRQNILVSGNADSTVKVWDITTGQCLQTLSGPNKHHSAVTCLQFNSRFVVTSSDDGTVKLWDVKTGDFIRNLVALDSGGSGGVVWRIRANDTKLICAVGSRNGTEETKLMVLDFDVEGACVKCS
partner: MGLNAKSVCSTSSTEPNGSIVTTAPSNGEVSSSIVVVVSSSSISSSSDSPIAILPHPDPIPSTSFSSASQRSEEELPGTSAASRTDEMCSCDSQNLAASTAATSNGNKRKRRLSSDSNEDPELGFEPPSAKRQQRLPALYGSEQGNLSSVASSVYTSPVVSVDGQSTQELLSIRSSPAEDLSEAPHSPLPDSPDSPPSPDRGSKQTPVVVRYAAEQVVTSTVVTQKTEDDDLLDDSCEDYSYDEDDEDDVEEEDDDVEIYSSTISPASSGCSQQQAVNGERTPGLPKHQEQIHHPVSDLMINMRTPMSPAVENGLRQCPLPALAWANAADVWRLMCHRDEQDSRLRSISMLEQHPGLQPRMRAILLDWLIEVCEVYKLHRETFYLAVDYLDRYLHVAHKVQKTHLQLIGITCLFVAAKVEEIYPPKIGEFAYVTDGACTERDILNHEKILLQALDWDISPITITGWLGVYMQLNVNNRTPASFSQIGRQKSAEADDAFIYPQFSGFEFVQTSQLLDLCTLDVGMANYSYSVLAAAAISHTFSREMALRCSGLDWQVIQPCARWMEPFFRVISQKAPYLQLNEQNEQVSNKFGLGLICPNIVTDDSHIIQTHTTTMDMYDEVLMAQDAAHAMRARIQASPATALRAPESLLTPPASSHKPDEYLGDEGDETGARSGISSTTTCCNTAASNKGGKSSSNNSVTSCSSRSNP

Variants of: B1
Conditions: with ccne_drome CycE

Variant | effect of a mutation on the interaction
G1131E | decreasing interaction
